In article PMC7160566 one finds response data, which are given here for 16 variants.

The labels stand for the following.
B1: LexA_(DBDwt)-SehB-WT [Salmonella enterica serotype Typhimurium] / LexA_(DBDmut)-SehA [Salmonella enterica serotype Typhimurium] (parent)
chain 1: MRTHRQMDATSAKKIVDTFSDAVKTVPLMGEDRNDNEYRRALALVEFLVDHDDLENPLFELLCARISEYEKHAPEFKALNQHLEKTPPGVSVLRTLMDQYGLKAADLANELGSKSNVSNILNGRRALTVNHIKALTQRFKLPADAFIE
chain 2: MHVISRKPFNEAMLMYPNHELALTELLNVLEKKTFTQPEEMKRYIPSLDNFKYRDKWWVIDVSGNSLRLISYIDFRLHKIFVKHIVSHAEYDKLTAYYRGNKE
B2: LexA_(DBDwt)-SehB-WT [Salmonella enterica serotype Typhimurium] / itself (parent)
chain: B1 chain 1

In one experiment the parent is B1. The experiment in a line: LexA-based genetic system for heterodimerization (sulA-lacZ reporter, E. coli SU202). The following applies: with LexA_(DBDmut)-SehA [Salmonella enterica serotype Typhimurium]; LB broth at 37°C to an OD600 nm of 1.0; 1 mM IPTG; parent: 750; read off a plot.
For the variant chain 1 L48A, the response is 940 U/mg.

In the case of chain 1 S113A, the response came to 760 U/mg.

On to chain 1 F146A, for which the response is 780 U/mg.

Turning to chain 1 Y38A, the response was found to be 1100 U/mg.

Regarding chain 1 L58A, the response was 820 U/mg.

Take chain 1 I66A: the response was 630 U/mg.

On to chain 1 L135A, for which the response stood at 720 U/mg.

As to chain 1 L127A, the response worked out at 770 U/mg.

The next experiment covers variants of B2. Put plainly: LexA-based genetic system for homodimerization (sulA-lacZ reporter, E. coli SU101). The following applies: with itself; LB broth at 37°C to an OD600 nm of 1.0; 1 mM IPTG; parent: 130; read off a plot.
In the case of chain 1 L127A, the response turned out to be 170 U/mg.

For the variant chain 1 F146A, the response was 110 U/mg.

On to chain 1 L135A, for which the response amounted to 130 U/mg.

With chain 1 S113A, the response worked out at 110 U/mg.

Regarding chain 1 L48A, the response amounted to 770 U/mg.

As to chain 1 I66A, the response was determined as 680 U/mg.

For chain 1 L58A, the response was 650 U/mg.

Consider chain 1 Y38A, for which the response stood at 600 U/mg.
